Here are results for five molecules from patent US20260049134A1 (UNIVERSITY OF FLORIDA RESEARCH FOUNDATION, published 2026).

Sequences and labels used below:
T1: PTPRG-Fc (ECD of human PTPRG, aa 20-736, fused to human Fc gamma 1) (human, UniProt P23470 20-736)
T1 construct: Made in-house in Expi293 cells; Used in ELISA and SPR; also called recombinant PTPRG-Fc; PTRPG; not shown: human IgG1 Fc (Fc gamma 1) after the hinge
T1 sequence: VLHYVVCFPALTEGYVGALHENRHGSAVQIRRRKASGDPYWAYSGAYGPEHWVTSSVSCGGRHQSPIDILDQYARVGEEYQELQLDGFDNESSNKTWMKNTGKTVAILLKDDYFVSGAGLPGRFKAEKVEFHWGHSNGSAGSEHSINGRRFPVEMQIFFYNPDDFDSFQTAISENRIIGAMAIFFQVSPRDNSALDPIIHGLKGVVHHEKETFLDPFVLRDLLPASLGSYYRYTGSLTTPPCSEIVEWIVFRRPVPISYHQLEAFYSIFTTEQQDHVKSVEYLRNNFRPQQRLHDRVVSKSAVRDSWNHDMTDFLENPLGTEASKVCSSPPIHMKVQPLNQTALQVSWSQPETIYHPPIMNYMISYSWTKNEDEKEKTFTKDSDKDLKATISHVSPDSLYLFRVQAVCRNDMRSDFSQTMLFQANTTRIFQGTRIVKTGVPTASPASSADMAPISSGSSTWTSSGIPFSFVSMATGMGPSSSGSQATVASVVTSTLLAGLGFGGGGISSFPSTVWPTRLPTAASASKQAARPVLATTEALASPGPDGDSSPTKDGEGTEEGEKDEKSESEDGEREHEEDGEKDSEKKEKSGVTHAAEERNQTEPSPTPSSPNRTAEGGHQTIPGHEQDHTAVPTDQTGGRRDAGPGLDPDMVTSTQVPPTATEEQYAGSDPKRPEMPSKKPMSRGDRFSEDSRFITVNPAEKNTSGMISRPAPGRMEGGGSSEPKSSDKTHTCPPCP

B1: HW-25 Fab (chimeric rabbit/human, His-tagged) (Fab, V domains shown)
VH: QSLEESGGRLVTPGTPLTLTCTVSGFSLSSYAMGWVRQAPGKGLEWIGIIDSRGSTYYATWAKGRFTISKTSTTVDLKITSPTTEDTATYFCAREDSYYYDSFNLWGPGTLVTVSS
VL: SFVLTQPASVQVNLGQTVSLTCTADTLSRRYASWYQQKPGQAPVLLIYRDTSRPSGVPDRFSGSSSGNTATLTISGAQAGDEADYYCATSDGSGSSYQCVFGGGTQLTVT
notes: Monovalent Fab: rbVH-huCH1 and rbVL-huCL, His-tagged, made in E. coli from pET11a
B2: HW-1 Fab (chimeric rabbit/human, His-tagged) (Fab, V domains shown)
VH: QSLEESGGGLFKPTDTLTLTCTASGFSLGSSYAISWVRQAPGKELEWIGTIDSGRAYYARWAKSRSTITRNTNENTVTLKMTSLTAADTATYFCARDLIPTYSQDIWGPGTLVTISS
VL: SFVLTQPASVQVNLGQTVSLTCTADTLSRRYASWYQQKPGQAPVLLIYRDTSRPSGVPDRFSGSSSGNTATLTISGAQAGDEADYYCATSDGSGNSYQYVFGGGTQLTVT
notes: as for B1
B3: HW-70 Fab (chimeric rabbit/human, His-tagged) (Fab, V domains shown)
VH: QSLEESGGRLVTPGTPLTLTCTVSGFSLSSNAMSWVRQAPGKGLEWIGTIDGYGYTYYASWAKGRFTVSKTSTTVDLKITSPTTEDTATYFCAREIYLGSNFWGPGTLVTISS
VL: SFVLTQPASVQVNLGQTVSLTCTADTLSRRYASWYQQKPGQAPVLLIYRDTSRPSGVPDRFSGSSSGNTATLTISGAQAGDEADYYCATADGSGSSYQFVFGGGTQLTVT
notes: as for B1
B4: HW-17 Fab (chimeric rabbit/human, His-tagged) (Fab, V domains shown)
VH: QSLGESRGRLVTPDETLTLTCTVSGIDLSSNAMSWVRQAPGEGLEWIGTINTGGRAYYASWAKGRFTISRTSTTVDLKMTSLTTEDTATYFCARERYSDGRAYDIWGPGTLVTISS
VL: SFVLTQPASVQVNLGQTVSLTCTADTLSRRYASWYQQKPGQAPVLLIYTDSNRPSGIPDRFSGSSSGNTATLTISGAQAGDEADYYCATDDGSGSIYQYVFGGGTQLTVT
notes: as for B1
B5: HW-42 Fab (chimeric rabbit/human, His-tagged) (Fab, V domains shown)
VH: QSVKESEGGLFKPADTLTLTCTVSGFSLSSNEISWVRQAPGEGLEYIGIIDTGGRAYYAVWARSRSTITRNTNLNTVTLKMTSLTAADTATYFCARGGVDTEWYAFSSWGPGTLVTVPS
VL: SFVLTQPASVQVNLGQTVSLTCTADTLSRRYASWYQQKPGQAPVLLIFRDTSRPSGVPDRFSGSSSGDTATLTISGAQAGDEADYYCATSDGSGSNYQYVFGGGTQLTVT
notes: as for B1

For this experiment, the target named is T1, PTPRG-Fc (ECD of human PTPRG, aa …). The experiment is described as follows: SPR, Biacore X100; PTPRG-Fc captured by anti-human Fc on CM5, Fab injected; mean of triplicates (SD). Here is the method:
A Biacore X100 instrument was used to determine the monovalent affinities of the C-1 cluster of Fabs for recombinant PTPRG-Fc, as previously described. […] Each experiment was repeated in triplicate. Rate constants (kₒₙ, koff, and Kd) were calculated using the Biacore evaluation software (Cytiva).
In general terms: SPR reads the build-up and loss of mass on a sensor chip optically.
B1: the Kd – broadly, the free concentration of one partner at which half of the binding sites on the other are occupied at equilibrium, for simple one-to-one binding – was found to be 0.65 nM; the koff – broadly, the rate constant with which the complex falls apart – is 0.000367 s⁻¹; the kon (commonly the rate constant with which the complex forms) was 566000 M⁻¹ s⁻¹.
For B2, the Kd stood at 2.54 nM, the koff came to 0.000482 s⁻¹ and the kon stood at 195000 M⁻¹ s⁻¹.
As for B3, the affinity, expressed as Kd, was 19.1 nM; the koff was 0.0153 s⁻¹; the kon is 826000 M⁻¹ s⁻¹.
As to B4, the Kd was determined as 9.34 nM, the koff stood at 0.00158 s⁻¹ and the kon was 169000 M⁻¹ s⁻¹.
B5 gave a Kd of 28.9 nM, a koff of 0.00429 s⁻¹ and a kon of 149000 M⁻¹ s⁻¹.
